By Kd is commonly meant a measure of binding affinity in units of concentration. High values mean weaker binding, low ones tighter binding. For orientation: koff means the rate constant with which the complex falls apart. A higher koff goes with a short-lived complex. A word on the kon: it is the second-order rate constant of association. A high value points to fast association.

3 molecules from patent US20250230251A1 (Bristol-Myers Squibb, published 2025) can be followed below.

The target of data set [1] is T1, huIL-18Rβ-HisAvi (human, UniProt O95256 20-356, biotinylated in the Octet blocking assay).
T1 construct: Soluble analyte in all SPR runs; captured on streptavidin sensors in the Octet assay; also called human IL-18Rβ; human IL-18Rβ-Avi-His
T1 sequence: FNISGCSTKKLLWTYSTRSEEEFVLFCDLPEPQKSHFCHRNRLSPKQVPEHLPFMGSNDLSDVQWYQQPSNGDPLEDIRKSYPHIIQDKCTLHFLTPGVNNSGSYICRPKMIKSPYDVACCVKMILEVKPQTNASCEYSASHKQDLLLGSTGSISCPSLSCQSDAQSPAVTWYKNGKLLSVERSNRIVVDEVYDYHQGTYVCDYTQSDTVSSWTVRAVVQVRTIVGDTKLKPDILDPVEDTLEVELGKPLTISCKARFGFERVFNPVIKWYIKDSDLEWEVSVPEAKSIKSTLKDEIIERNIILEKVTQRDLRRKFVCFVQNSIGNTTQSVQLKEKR
The data set can be described thus: SPR Biacore T200, mAb captured on anti-human Fc, huIL-18Rβ-HisAvi as analyte, PBST pH 5.5, 37 °C, 1:1 Binding fit.

Data set [2] deals with the molecule itself. The data set can be described thus: clone self-interaction BLI, antibody on AHQ sensor against 1 µM of the same antibody.
For data set [3], the target named is T1, huIL-18Rβ-HisAvi. The data set can be described thus: SPR T200, pH 7.4; sample stored at pH 6, 4 w 4C.
Data set [4] addresses T1, huIL-18Rβ-HisAvi. The data set can be described thus: SPR T200, mAb on anti-hFc, 37C, pH 7.4; pH 7.4.
For data set [5], the target named is T1, huIL-18Rβ-HisAvi. The data set can be described thus: SPR T200, pH 7.4; sample stored at pH 6, T0.
For data set [6], the target named is T1, huIL-18Rβ-HisAvi. Nature of the data set: SPR T200, mAb on anti-hFc, 37C, pH 5.
Data set [7] has as its target T1, huIL-18Rβ-HisAvi. The data set can be described thus: SPR T200, pH 7.4; sample stored at pH 6, 4 w 40C.
The target of data set [8] is T1, huIL-18Rβ-HisAvi. The data set can be described thus: SPR T200, pH 7.4; sample stored at pH 8, 4 w 4C.
In data set [9] the target is T1, huIL-18Rβ-HisAvi. Nature of the data set: SPR T200, pH 7.4; sample stored at pH 8, 4 w 40C.
Data set [10] addresses T2, human IL-18Rβ on cells (human, UniProt O95256 20-599).
T2 sequence: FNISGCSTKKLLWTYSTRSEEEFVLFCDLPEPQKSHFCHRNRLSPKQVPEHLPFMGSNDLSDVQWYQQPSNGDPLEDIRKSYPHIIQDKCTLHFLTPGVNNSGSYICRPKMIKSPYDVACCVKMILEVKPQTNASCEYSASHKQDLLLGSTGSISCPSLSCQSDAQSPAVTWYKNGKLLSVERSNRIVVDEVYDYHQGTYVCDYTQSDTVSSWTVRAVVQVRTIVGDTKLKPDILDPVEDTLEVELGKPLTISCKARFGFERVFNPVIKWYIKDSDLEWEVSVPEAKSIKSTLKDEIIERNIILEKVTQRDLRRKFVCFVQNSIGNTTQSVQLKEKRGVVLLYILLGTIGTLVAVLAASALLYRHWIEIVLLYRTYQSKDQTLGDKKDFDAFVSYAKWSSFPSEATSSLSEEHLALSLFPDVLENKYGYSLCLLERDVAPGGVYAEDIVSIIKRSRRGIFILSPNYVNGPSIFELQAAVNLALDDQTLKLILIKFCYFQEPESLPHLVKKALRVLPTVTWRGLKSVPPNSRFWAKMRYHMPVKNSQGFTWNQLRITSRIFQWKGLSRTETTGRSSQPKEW
Nature of the data set: cell-based or functional assay.

Data set [11] deals with T1, huIL-18Rβ-HisAvi. The data set can be described thus: SPR T200, pH 7; sample 4 w 40C.
The target in data set [12] is T2, human IL-18Rβ on cells. The data set can be described thus: cell-based or functional assay. The source holds these as a separate data set.
The target of data set [13] is T2, human IL-18Rβ on cells. The data set can be described thus: cell-based or functional assay. This is another data set of the same source.
Data set [14] deals with T1, huIL-18Rβ-HisAvi. Nature of the data set: SPR T200, pH 7; sample 2 w 40C.
Data set [15] concerns the target T1, huIL-18Rβ-HisAvi. Nature of the data set: SPR T200, pH 7; control.

Where a chain is given by its changes, count along the chain named.

B1: P20 (antibody, human IgG1, kappa)
heavy: QVQLQQSGPGLVKPSETLSLTCTVSGGSINNYYWSWIRQPPGKGLEWIGYIFYSGTTNYNPSLKSRVTISVDTSKNQFSLKLSSVTAADTAVYYCARDVGIAARNSYYYVMDVWGQGTTVTVSSASTKGPSVFPLAPSSKSTSGGTAALGCLVKDYFPEPVTVSWNSGALTSGVHTFPAVLQSSGLYSLSSVVTVPSSSLGTQTYICNVNHKPSNTKVDKRVEPKSCDKTHTCPPCPAPEAEGAPSVFLFPPKPKDTLMISRTPEVTCVVVDVSHEDPEVKFNWYVDGVEVHNAKTKPREEQYNSTYRVVSVLTVLHQDWLNGKEYKCKVSNKALPAPIEKTISKAKGQPREPQVYTLPPSREEMTKNQVSLTCLVKGFYPSDIAVEWESNGQPENNYKTTPPVLDSDGSFFLYSKLTVDKSRWQQGNVFSCSVMHEALHNHYTQKSLSLSPG
light: AIQLTQSPSSLSASVGDRVTITCRASQGISSALAWYQQKPGKAPKFLIYDASSLESGVPSRFSGSGSGTDFTLTISSLQPEDFATYYCQQFNSYPITFGQGTRLEIKRTVAAPSVFIFPPSDEQLKSGTASVVCLLNNFYPREAKVQWKVDNALQSGNSQESVTEQDSKDSTYSLSSTLTLSKADYEKHKVYACEVTHQGLSSPVTKSFNRGEC
notes: Human IgG
As to B1, the “apparent Kd (pooled screen)” value with huIL-18Rβ-HisAvi [1] is 2.56 nM; in the data set with huIL-18Rβ-HisAvi [3], 1.5 nM; with huIL-18Rβ-HisAvi [5], 1.4 nM; in the data set with huIL-18Rβ-HisAvi [6], 2 nM; in the data set with huIL-18Rβ-HisAvi [7], 1.3 nM; with huIL-18Rβ-HisAvi [8] it was 1.5 nM. The “apparent Kd (pooled screen)” value with huIL-18Rβ-HisAvi [9] turned out to be 1.6 nM. Further, the “apparent koff (pooled screen)” value in the data set with huIL-18Rβ-HisAvi [1] came to 0.000282 s⁻¹; with huIL-18Rβ-HisAvi [3], 0.00036 s⁻¹; with huIL-18Rβ-HisAvi [5] it was 0.00033 s⁻¹; with huIL-18Rβ-HisAvi [6] it was 0.00021 s⁻¹; with huIL-18Rβ-HisAvi [7], 0.00039 s⁻¹; with huIL-18Rβ-HisAvi [8] it was 0.00035 s⁻¹. For the same molecule, in the data set with huIL-18Rβ-HisAvi [9], the “apparent koff (pooled screen)” value was 0.00038 s⁻¹. Further, the “apparent kon (pooled screen)” value with huIL-18Rβ-HisAvi [1] is 110000 M⁻¹ s⁻¹; with huIL-18Rβ-HisAvi [3], 240000 M⁻¹ s⁻¹; with huIL-18Rβ-HisAvi [4], 330000 M⁻¹ s⁻¹; with huIL-18Rβ-HisAvi [5], 230000 M⁻¹ s⁻¹; with huIL-18Rβ-HisAvi [6] it was 100000 M⁻¹ s⁻¹; with huIL-18Rβ-HisAvi [7] it was 300000 M⁻¹ s⁻¹. Also, the “apparent kon (pooled screen)” value with huIL-18Rβ-HisAvi [8] is 230000 M⁻¹ s⁻¹; in the data set with huIL-18Rβ-HisAvi [9], 240000 M⁻¹ s⁻¹. For the same molecule, in data set [2], the “Average CSI-BLI ΔResponse” value is 0.02 nm. The “IC50, LPS+IL-12 dependent IFNg production, human whole blood” value with human IL-18Rβ on cells [10] turned out to be 1.66 nM.

B2: P20-V1 (antibody, human IgG1, kappa, V domains shown)
VH: QVQLQESGPGLVKPSETLSLTCTVSGGSINNYYWSWIRQPPGKGLEWIGYIFYSGTTNYNPSLKSRVTISVDTSKNQFSLKLSSVTAADTAVYYCARDVGIAARNSYYYVMDVWGQGTTVTVSS
VL: AIQLTQSPSSLSASVGDRVTITCRASQGISSALAWYQQKPGKAPKFLIYEASSLESGVPSRFSGSGSGTDFTLTISSLQPEDFATYYCQQFNSYPITFGQGTRLEIKR
notes: Variant of P20
In the data set with huIL-18Rβ-HisAvi [11], B2 returned a Kd of 0.5 nM, a koff of 0.00014 s⁻¹ and a kon of 290000 M⁻¹ s⁻¹. In the data set with human IL-18Rβ on cells [12], the “IC50, IFNg, human whole blood IL-18+IL-12, Average” value is 2.28 nM; the “IC50, IFNg, human whole blood IL-18+IL-12, donor C121” value amounted to 3.6 nM; the “IC50, IFNg, human whole blood IL-18+IL-12, donor C121 (second row)” value was found to be 1.3 nM; the “IC50, IFNg, human whole blood IL-18+IL-12, donor C175” value was 0.5 nM. Also, in the data set with human IL-18Rβ on cells [12], the “IC50, IFNg, human whole blood IL-18+IL-12, donor C237” value came out at 2.74 nM; the “IC50, IFNg, human whole blood IL-18+IL-12, donor C238” value was 1.35 nM; the “IC50, IFNg, human whole blood IL-18+IL-12, donor C249” value is 4.29 nM; the “IC50, IFNg, human whole blood IL-18+IL-12, donor C252” value amounted to 3.23 nM. Besides, the “IC50, IFNg, human whole blood IL-18+IL-12, donor C253” value with human IL-18Rβ on cells [12] is 1.24 nM. Further, in the data set with human IL-18Rβ on cells [13], the “IC50, IL-18-mediated IFNg release, KG-1 cells, Average” value is 2.01 nM; the “IC50, IL-18-mediated IFNg release, KG-1 cells, Exp. #1” value was 0.96 nM; the “IC50, IL-18-mediated IFNg release, KG-1 cells, Exp. #2” value amounted to 2.1 nM; the “IC50, IL-18-mediated IFNg release, KG-1 cells, Exp. #3” value turned out to be 1.46 nM. Moreover, in the data set with human IL-18Rβ on cells [13], the “IC50, IL-18-mediated IFNg release, KG-1 cells, Exp. #4” value amounted to 1.2 nM; the “IC50, IL-18-mediated IFNg release, KG-1 cells, Exp. #5” value turned out to be 2.94 nM; the “IC50, IL-18-mediated IFNg release, KG-1 cells, Exp. #6” value is 2.8 nM; the “IC50, IL-18-mediated IFNg release, KG-1 cells, Exp. #7” value stood at 2.6 nM. In the data set with huIL-18Rβ-HisAvi [14], this molecule came in with a Kd of 0.13 nM, a koff of 3.7e-05 s⁻¹ and a kon of 290000 M⁻¹ s⁻¹.

B3: P21 (antibody, human IgG1, kappa, V domains shown)
VH: QVQLQQSGPGLVKPSETLSLTCTVSGGSISNYYWTWIRQPPGKGLEWIGYISDSGSTNYNPSLKSRVTISVDTSKNQFSLKLSSVTAADTAVYYCARETIVVRGFYFYVMDVWGQGTTVTVSS
VL: B2 VL with K39R, F46L, E50D, S53N, L54W, I96W, R103K, L104V
notes: Human IgG
As for B3, the “Average CSI-BLI ΔResponse” value in data set [2] was -0.03 nm. Moreover, the Kd in the data set with huIL-18Rβ-HisAvi [3] was 1.4 nM; with huIL-18Rβ-HisAvi [5], 1.6 nM; with huIL-18Rβ-HisAvi [6], 2.5 nM; with huIL-18Rβ-HisAvi [15], 0.2 nM; with huIL-18Rβ-HisAvi [7], 5.6 nM; with huIL-18Rβ-HisAvi [8], 1.3 nM. The molecule further yielded a Kd in the data set with huIL-18Rβ-HisAvi [9] of 1.9 nM. Further, the koff with huIL-18Rβ-HisAvi [3] was determined as 0.00038 s⁻¹; with huIL-18Rβ-HisAvi [5] it was 0.00038 s⁻¹; in the data set with huIL-18Rβ-HisAvi [6] it was 0.0004 s⁻¹; in the data set with huIL-18Rβ-HisAvi [15], 7e-05 s⁻¹; with huIL-18Rβ-HisAvi [7] it was 0.0013 s⁻¹; in the data set with huIL-18Rβ-HisAvi [8], 0.00034 s⁻¹. In the data set with huIL-18Rβ-HisAvi [9], the koff is 0.0005 s⁻¹. Moreover, the kon stood at 260000 M⁻¹ s⁻¹ with huIL-18Rβ-HisAvi [3]; 240000 M⁻¹ s⁻¹ with huIL-18Rβ-HisAvi [5]; 160000 M⁻¹ s⁻¹ in the data set with huIL-18Rβ-HisAvi [6]; 350000 M⁻¹ s⁻¹ with huIL-18Rβ-HisAvi [15]; 230000 M⁻¹ s⁻¹ with huIL-18Rβ-HisAvi [7]; 270000 M⁻¹ s⁻¹ with huIL-18Rβ-HisAvi [8]. Besides, in the data set with huIL-18Rβ-HisAvi [9], the kon came out at 260000 M⁻¹ s⁻¹. Also, the “IC50, LPS+IL-12 dependent IFNg production, human whole blood” value with human IL-18Rβ on cells [10] turned out to be 1.34 nM.
